# Experimental data taken from US20110300138A1 (published 2011).
# Legend:
# [1] = biological target: human TSHR (thyroid stimulating hormone receptor) expressed in transfected CHO cells (human) (UniProt P16473); assay: cell-based or functional assay
# [2] = biological target: human TSH receptor (wild type), expressed on transfected CHO cells (human) (UniProt P16473); assay: cell-based or functional assay
# [3] = biological target: human TSH receptor (full length, wild type) expressed in CHO cells (human) (UniProt P16473); assay: cell-based or functional assay
# [4] = biological target: human TSH receptor (TSHR), wild type, expressed in CHO cells (human) (UniProt P16473); assay: cell-based or functional assay
# [5] = biological target: TSHR260-AP (human); assay: TSHR260-AP bridge ELISA (full length TSHR on wells, TSHR260-AP in solution); IgG 0.1 µg/mL diluted in assay buffer
# [6] = biological target: TSHR260-AP (human); assay: TSHR260-AP bridge ELISA (full length TSHR on wells, TSHR260-AP in solution); IgG 250 µg/mL diluted in HBD serum
# [7] = biological target: TSHR260-alkaline phosphatase (TSHR260-AP) (human) (UniProt P05187); assay: TSHR260-AP bridge ELISA, full length TSHR on wells; 0.01 µg/mL, diluted in assay buffer
substance,measurement,setting,value
5B3 IgG (antibody),Cyclic AMP concentration; 3 ng/mL M22 IgG + 100 µg/mL 5B3 IgG,[1],51.3 pmol/mL
same,Cyclic AMP concentration; 100 µg/mL 5B3 IgG,[1],2.3 pmol/mL
same,% Inhibition (constitutive activity); 0.01 µg/mL 5B3 IgG,[2],0%
same,% Inhibition (constitutive activity); 0.1 µg/mL 5B3 IgG,[2],0%
same,% Inhibition (constitutive activity); 0.2 µg/mL 5B3 IgG,[2],8.2%
same,% Inhibition (constitutive activity); 1 µg/mL 5B3 IgG,[2],6.3%
same,% Inhibition (constitutive activity); 2 µg/mL 5B3 IgG,[2],12.9%
same,% Inhibition; 5B3 IgG 0.1 µg/mL + T11,[2],29.8%
same,% Inhibition; 5B3 IgG 1 µg/mL + T11,[2],21.4%
same,% Inhibition; 5B3 IgG 10 µg/mL + T11,[2],25.4%
same,% Inhibition; 5B3 IgG 100 µg/mL + T11,[2],27%
same,% Inhibition; pTSH 3 ng/mL + 10 µg/mL 5B3,[2],0%
same,% Inhibition; pTSH 3 ng/mL + 100 µg/mL 5B3,[2],0.5%
same,Cyclic AMP concentration; 100 µg/mL 5B3 alone,[2],0.9 pmol/mL
same,Cyclic AMP concentration; 5B3 IgG 0.1 µg/mL + T11,[2],17.7 pmol/mL
same,Cyclic AMP concentration; 5B3 IgG 1 µg/mL + T11,[2],19.8 pmol/mL
same,Cyclic AMP concentration; 5B3 IgG 10 µg/mL + T11,[2],18.8 pmol/mL
same,Cyclic AMP concentration; 5B3 IgG 100 µg/mL + T11,[2],18.4 pmol/mL
same,Cyclic AMP concentration; 5B3 IgG 100 µg/mL alone,[2],1 pmol/mL
same,Cyclic AMP concentration; pTSH 3 ng/mL + 10 µg/mL 5B3,[2],66.9 pmol/mL
same,Cyclic AMP concentration; pTSH 3 ng/mL + 100 µg/mL 5B3,[2],63.9 pmol/mL
same,Cyclic AMP production (constitutive activity); 0.01 µg/mL 5B3 IgG,[2],58.2 pmol/mL
same,Cyclic AMP production (constitutive activity); 0.1 µg/mL 5B3 IgG,[2],58.8 pmol/mL
same,Cyclic AMP production (constitutive activity); 0.2 µg/mL 5B3 IgG,[2],53.3 pmol/mL
same,Cyclic AMP production (constitutive activity); 1 µg/mL 5B3 IgG,[2],54.4 pmol/mL
same,Cyclic AMP production (constitutive activity); 2 µg/mL 5B3 IgG,[2],50.6 pmol/mL
same,% Inhibition; T1 serum + 100 µg/mL 5B3 IgG,[3],4.9%
same,% Inhibition; T2 serum + 100 µg/mL 5B3 IgG,[3],0%
same,% Inhibition; T3 serum + 100 µg/mL 5B3 IgG,[3],14.4%
same,Cyclic AMP concentration; 100 µg/mL 5B3 IgG alone,[3],1 pmol/mL
same,Cyclic AMP concentration; HBD + 100 µg/mL 5B3 IgG,[3],2 pmol/mL
same,Cyclic AMP concentration; T1 serum + 100 µg/mL 5B3 IgG,[3],94.9 pmol/mL
same,Cyclic AMP concentration; T2 serum + 100 µg/mL 5B3 IgG,[3],62 pmol/mL
same,Cyclic AMP concentration; T3 serum + 100 µg/mL 5B3 IgG,[3],54.2 pmol/mL
same,Cyclic AMP concentration in hypotonic medium; 1 µg/mL 5B3 IgG + 3 ng/mL pTSH,[4],71.9 pmol/mL
same,Cyclic AMP concentration in hypotonic medium; 3 µg/mL 5B3 IgG + 3 ng/mL pTSH,[4],75.7 pmol/mL
same,Cyclic AMP concentration in hypotonic medium; 3 µg/mL 5B3 IgG alone,[4],1.9 pmol/mL
same,Cyclic AMP concentration in isotonic medium; 1 µg/mL 5B3 IgG + 3 ng/mL pTSH,[4],39.5 pmol/mL
same,Cyclic AMP concentration in isotonic medium; 3 µg/mL 5B3 IgG + 3 ng/mL pTSH,[4],42.5 pmol/mL
same,Cyclic AMP concentration in isotonic medium; 3 µg/mL 5B3 IgG alone,[4],0.5 pmol/mL
same,Mean absorbance at 405 nm (absorbance at 405 nm),[5],-0.013
same,Mean absorbance at 405 nm (absorbance at 405 nm),[6],0.012
same,Mean absorbance at 405 nm (absorbance at 405 nm),[7],0.012
